Source: patent US20090060924A1 (Eli Lilly, published 2009)

T1: rat sclerostin (rat, UniProt Q99P67 24-213, limits assumed)
T1 sequence (looked up): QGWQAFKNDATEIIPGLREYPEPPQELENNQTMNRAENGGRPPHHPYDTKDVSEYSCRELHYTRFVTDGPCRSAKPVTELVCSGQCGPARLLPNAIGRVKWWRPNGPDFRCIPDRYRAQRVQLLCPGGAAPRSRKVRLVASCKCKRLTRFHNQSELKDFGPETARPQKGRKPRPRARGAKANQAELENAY

T2: human sclerostin (human, UniProt Q9BQB4 24-213)
T2 sequence: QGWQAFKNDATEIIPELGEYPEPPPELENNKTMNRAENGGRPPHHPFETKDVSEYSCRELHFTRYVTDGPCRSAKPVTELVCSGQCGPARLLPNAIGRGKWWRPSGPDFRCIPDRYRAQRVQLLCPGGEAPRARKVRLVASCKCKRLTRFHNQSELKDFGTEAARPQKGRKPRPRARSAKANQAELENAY


Tests used:
[1] = molecular target: T3, cynomologous monkey sclerostin (cynomologous monkey); experiment: cell-based or functional assay
[2] = molecular target: T3, cynomologous monkey sclerostin; experiment: KinExA 3000 equilibrium binding in solution, 25 C, 1:1 model
Description: (§1) Equilibrium binding studies between an anti-sclerostin antibody and either human, cynomologous (“cyno”) monkey or rat sclerostin are performed on a KinExA 3000 instrument (Sapidyne Instruments Inc.) under KD-controlled conditions. With this technique, a fixed concentration of antibody below its KD is mixed with various concentration of sclerostin protein and allowed to come to equilibrium. The fraction of free, unbound, antibody remaining in solution is probed by briefly exposing this equibrated mixture to sclerostin-coated beads followed by detection with a fluorescently labeled secondary antibody. Typically 2 μM of an anti-sclerostin antibody to be tested is mixed with varying concentrations of human, cyno, or rat sclerostin starting at 2-50 nM and doing three-fold serial dilutions in binding buffer (1× phosphate buffered saline solution, pH 7.4, 0.02% sodium azide and 1 mg/mL bovine serum albumin) containing 2 pM of the antibody to be tested. These solutions are allowed to reach equilibrium over two days at 25° C. The amount of unbound antibody is probed using human sclerostin-coated azlactone beads (Sapidyne Instruments Inc.). These beads are prepared by reacting 50 mg of dry azlactone beads with 50 mcg/ml human sclerostin in a 50 mM sodium carbonate buffer at pH 9.0-9.6 with overnight rotation. Beads are then allowed to settle and the supernatant is replaced with blocking solution (1 M Tris, pH 8.0, plus 10 mg/mL bovine serum albumin) and rotated for one hour. This bead stock is diluted 20-fold into binding buffer and used within three days. A KinExA 3000 instrument equilibrated at room temperature (ca 25° C.) is used for binding studies. Typically 6.25 mL of the equilibrated antibody/sclerostin solution are drawn over a packed human sclerostin-azlactone bead column at 0.25 mL/minute flow rate then rinsed with running buffer (1× phosphate buffered saline solution, pH 7.4 with 0.02% sodium azide). The fraction of free anti-sclerostin antibody bound to these beads is quantified by measuring fluorescence resulting from an injected labeled secondary antibody (Cy5-labeled goat anti-human Fab′2 antibody). Two replicate samples for each condition are analyzed and KD is determined by fitting data to a 1:1 binding model using KinExA Pro software.

rat sclerostin = molecular target: T1, rat sclerostin; experiment: as above
Description: as §1

human sclerostin [3] = molecular target: T2, human sclerostin; experiment: cell-based or functional assay
human sclerostin [4] = molecular target: T2, human sclerostin; experiment: KinExA 3000 equilibrium binding in solution, 25 C, 1:1 model
Description: as §1

Row | IC50 (nM), bone specific alkaline phosphatase assay in C2C12 cells, using cyno sclerostin [1] [nM] | Kd [2] [pM] | Kd (rat sclerostin) [pM] | IC50 (nM), bone specific alkaline phosphatase assay in C2C12 cells, using human sclerostin (human sclerostin [3]) [nM] | Kd (human sclerostin [4]) [pM] | Binder
1 | 23.7 | 75 | 2.2 |  |  | humanized anti-sclerostin monoclonal antibody 88 (antibody, human IgG4 S228P, kappa, V domains shown, Full-length humanized antibody; Derived from chimeric parent 788) VH: QVQLVQSGAEVKKPGASVKVSCKVSGFPIKDTFQHWVRQAPGKGLEWMGWSDPEIGDTEYASKFQGRVTMTEDTSTDTAYMELSSLRSEDTAVYYCATGDTTYKFDFWGQGTTVTVSS VL: DIQMTQSPSSLSASVGDRVTITCKASQDVHTAVAWYQQKPGKAPKLLIYWASTRWTGVPSRFSGSGSGTDFTLTISSLQPEDFATYYCQQYSDYPWTFGGGTKVEIKR
2 | 34.4 | 1.4 | 0.4 | 25.1 | 0.3 | humanized anti-sclerostin monoclonal antibody 89 (antibody, human IgG4 S228P, kappa, V domains shown, Full-length humanized antibody; Derived from chimeric parent 789) VH: EVQLVQSGAEVKKPGESLKISCKGSDFEIKDYYIHWVRQMPGKGLEWMGQIDAEDGETEYAPRFQGQVTISADKSISTAYLQWSSLKASDTAMYYCAREGYYYDGRDYWYFDVWGQGTTVTVSS VL: EIVLTQSPATLSLSPGERATLSCSASSSVSYIHWYQQKPGQAPRLLIYSTSELASGIPARFSGSGSGTDFTLTISSLEPEDFAVYYCQQLSHLPLTFGGGTKVEIKR
3 | 31.6 | 1 | 0.1 | 25.5 | 0.6 | humanized anti-sclerostin monoclonal antibody 86 (antibody, human IgG4 S228P, kappa, V domains shown, Full-length humanized antibody; Two heavy and two light chains per claim 3) VH: QVQLVQSGAEVKKPGSSVKVSCKASGYTFTDYFLNWVRQAPGQGLEWMGTIYPYHDGTTYSQKFKGRVTITADKSTSTAYMELSSLRSEDTAVYYCAREEEDGQFDYWGQGTTVTVSS VL: DIQMTQSPSSLSASVGDRVTITCSASQGIQWYLNWYQQKPGKAPKLLIYYTSSLHSGVPSRFSGSGSGTDFTLTISSLQPEDFATYYCQQHSKLPRTFGGGTKVEIKR
